# Measured values taken from the supplement of paper PMC5998384.
# Legend:
# HeLa Kyoto [1] = test: melting temperature (median over replicates), in situ; higher = more thermally stable
# HeLa Kyoto [2] = test: solubility change mitosis vs G1/S (difference of NP-40 vs SDS log2 ratios) (log2 ratio difference); higher = more soluble in mitosis
# HeLa Kyoto [3] = test: thermal stability score vs G1/S (z-score of summed log2 fold changes over temperatures); higher = more thermally stable than in G1/S
# HeLa Kyoto [4] = test: solubility in G1/S (NP-40 vs SDS abundance) (log2 ratio); higher = more soluble; details: cell cycle stage: G1/S
# [5] = cell cycle stage: early G1 (4.5 h after nocodazole release)
# 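Throughout, for melting temperature (median over replicates), in situ: HeLa Kyoto cells synchronized by double thymidine or nocodazole block, proteins quantified by TMT10plex mass spectrometry, three independent biological replicates.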
# 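Throughout, for solubility change mitosis vs G1/S (difference of NP-40 vs SDS log2 ratios): synchronized HeLa Kyoto cells (double thymidine block for G1/S, nocodazole release for mitosis), protein amounts in NP-40 versus SDS lysates quantified by mass spectrometry, three biological replicates.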
# 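Throughout, for solubility in G1/S (NP-40 vs SDS abundance): HeLa Kyoto cells arrested at G1/S by double thymidine block, proteins quantified by TMT10plex mass spectrometry in mild NP-40 versus SDS extracts, three biological replicates.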
# 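Throughout, for thermal stability score vs G1/S (z-score of summed log2 fold changes over temperatures): synchronized HeLa Kyoto cells, proteins quantified by TMT10plex mass spectrometry, three biological replicates, mitosis taken 0.5 h after nocodazole release, G1/S directly after double thymidine block.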
Sequence,melting temperature (HeLa Kyoto [1]; cell cycle stage: G1/S) [°C],melting temperature (HeLa Kyoto [1]; cell cycle stage: mitosis) [°C],solubility change mitosis (log2) (HeLa Kyoto [2]),thermal stability score (HeLa Kyoto [3]; [5]),thermal stability score (HeLa Kyoto [3]; cell cycle stage: mitosis),solubility in G1/S (log2) (HeLa Kyoto [4])
MRPLLLLALLGWLLLAEAKGDAKPEDNLLVLTVATKETEGFRRFKRSAQFFNYKIQALGLGEDWNVEKGTSAGGGQKVRLLKKALEKHADKEDLVILFADSYDVLFASGPRELLKKFRQARSQVVFSAEELIYPDRRLETKYPVVSDGKRFLGSGGFIGYAPNLSKLVAEWEGQDSDSDQLFYTKIFLDPEKREQINITLDHRCRIFQNLDGALDEVVLKFEMGHVRARNLAYDTLPVLIHGNGPTKLQLNYLGNYIPRFWTFETGCTVCDEGLRSLKGIGDEALPTVLVGVFIEQPTPFVSLFFQRLLRLHYPQKHMRLFIHNHEQHHKAQVEEFLAQHGSEYQSVKLVGPEVRMANADARNMGADLCRQDRSCTYYFSVDADVALTEPNSLRLLIQQNKNVIAPLMTRHGRLWSNFWGALSADGYYARSEDYVDIVQGRRVGVWNVPYISNIYLIKGSALRGELQSSDLFHHSKLDPDMAFCANIRQQDVFMFLTNRHTLGHLLSLDSYRTTHLHNDLWEVFSNPEDWKEKYIHQNYTKALAGKLVETPCPDVYWFPIFTEVACDELVEEMEHFGQWSLGNNKDNRIQGGYENVPTIDIHMNQIGFEREWHKFLLEYIAPMTEKLYPGYYTRAQFDLAFVVRYKPDEQPSLMPHHDASTFTINIALNRVGVDYEGGGCRFLRYNCSIRAPRKGWTLMHPGRLTHYHEGLPTTRGTRYIAVSFVDP [PLOD1],54.3,54.5,-0.0758,3.69,3.91,-0.0992
MKLLLLHPAFQSCLLLTLLGLWRTTPEAHASSLGAPAISAASFLQDLIHRYGEGDSLTLQQLKALLNHLDVGVGRGNVTQHVQGHRNLSTCFSSGDLFTAHNFSEQSRIGSSELQEFCPTILQQLDSRACTSENQENEENEQTEEGRPSAVEVWGYGLLCVTVISLCSLLGASVVPFMKKTFYKRLLLYFIALAIGTLYSNALFQLIPEAFGFNPLEDYYVSKSAVVFGGFYLFFFTEKILKILLKQKNEHHHGHSHYASESLPSKKDQEEGVMEKLQNGDLDHMIPQHCSSELDGKAPMVDEKVIVGSLSVQDLQASQSACYWLKGVRYSDIGTLAWMITLSDGLHNFIDGLAIGASFTVSVFQGISTSVAILCEEFPHELGDFVILLNAGMSIQQALFFNFLSACCCYLGLAFGILAGSHFSANWIFALAGGMFLYISLADMFPEMNEVCQEDERKGSILIPFIIQNLGLLTGFTIMVVLTMYSGQIQIG [SLC39A14],55.3,59,-0.241,1.32,2.81,-0.0657
MQGGEPVSTMKVSESEGKLEGQATAVTPNKNSSCGGGISSSSSSRGGSAKGWQYSDHMENVYGYLMKYTNLVTGWQYRFFVLNNEAGLLEYFVNEQSRNQKPRGTLQLAGAVISPSDEDSHTFTVNAASGEQYKLRATDAKERQHWVSRLQICTQHHTEAIGKNNPPLKSRSFSLASSSNSPISQRRPSQNAISFFNVGHSKLQSLSKRTNLPPDHLVEVREMMSHAEGQQRDLIRRIECLPTSGHLSSLDQDLLMLKATSMATMNCLNDCFHILQLQHASHQKGSLPSGTTIEWLEPKISLSNHYKNGADQPFATDQSKPVAVPEEQPVAESGLLAREPEEINADDEIEDTCDHKEDDLGAVEEQRSVILHLLSQLKLGMDLTRVVLPTFILEKRSLLEMYADFMSHPDLFIAITNGATAEDRMIRFVEYYLTSFHEGRKGAIAKKPYNPIIGETFHCSWKMPKSEVASSVFSSSSTQGVTNHAPLSGESLTQVGSDCYTVRFVAEQVSHHPPVSGFYAECTERKMCVNAHVWTKSKFLGMSIGVTMVGEGILSLLEHGEEYTFSLPCAYARSILTVPWVELGGKVSVNCAKTGYSASITFHTKPFYGGKLHRVTAEVKHNITNTVVCRVQGEWNSVLEFTYSNGETKYVDLTKLAVTKKRVRPLEKQDPFESRRLWKNVTDSLRESEIDKATEHKHTLEERQRTEERHRTETGTPWKTKYFIKEGDGWVYHKPLWKIIPTTQPAE [OSBPL11],50,50.4,-0.0415,0.575,1.25,-0.139
